Measurements published in publication PMC4861259, “An Interplay of S-Nitrosylation and Metal Ion Binding for Astrocytic S100B Protein” (PLoS ONE, 2016).

B1: recombinant human S100B protein, unmodified (S100BSH) (natural protein, UniProt P04271 1-92, looked up)
chain: MSELEKAMVALIDVFHQYSGREGDKHKLKKSELKELINNELSHFLEEIKEQEVVDKVMETLDNDGDGECDFQEFMAFVAMVTTACHEFFEHE
notes: S100B protein, human, recombinant; Non-covalent homodimer; source: E. coli bacterial culture, purified (semi-preparative HPLC, C18)
B2: recombinant human S100B protein, S-nitrosylated at Cys84 (S100BSNO) (natural protein, UniProt P04271 1-92, looked up)
chain: B1 chain
modifications: S-nitrosylated cysteine (SNO) at Cys84
notes: S100B protein, human, recombinant, chemically S-nitrosylated at Cys84; Non-covalent homodimer; also called S100BNO; S-nitrosylated S100B; source: E. coli, chemically S-nitrosylated, purified (semi-preparative HPLC, C18)

Target: the molecule itself
Test: SEC; Superdex 75 10/300 GL; 200 μl of 100 μM protein loaded, before and after every ITC run, in the ITC buffers (10 mM TES pH 7.2 with 15 mM or 150 mM NaCl, with or without CaCl2)

Protein	stoichiometry N
B1	2
B2	2
